Measured values from paper PMC8809517, “Cofactor-independent RNA editing by a synthetic S-type PPR protein”.

T1: GFP-9S library array, motif 4 ND N98D;D124H (synthetic construct, N98D;D124H)
T1 chain: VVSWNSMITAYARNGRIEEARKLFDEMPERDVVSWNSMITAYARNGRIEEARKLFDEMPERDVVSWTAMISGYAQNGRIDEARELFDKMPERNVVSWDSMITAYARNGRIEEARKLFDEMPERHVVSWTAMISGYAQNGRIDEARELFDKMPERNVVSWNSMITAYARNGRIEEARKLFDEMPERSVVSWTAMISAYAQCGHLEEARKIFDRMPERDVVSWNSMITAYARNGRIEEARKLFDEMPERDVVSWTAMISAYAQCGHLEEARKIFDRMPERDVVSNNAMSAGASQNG

T2: GFP-9S library array, motif 4 ND N98K;D124T (synthetic construct, N98K;D124T)
T2 chain: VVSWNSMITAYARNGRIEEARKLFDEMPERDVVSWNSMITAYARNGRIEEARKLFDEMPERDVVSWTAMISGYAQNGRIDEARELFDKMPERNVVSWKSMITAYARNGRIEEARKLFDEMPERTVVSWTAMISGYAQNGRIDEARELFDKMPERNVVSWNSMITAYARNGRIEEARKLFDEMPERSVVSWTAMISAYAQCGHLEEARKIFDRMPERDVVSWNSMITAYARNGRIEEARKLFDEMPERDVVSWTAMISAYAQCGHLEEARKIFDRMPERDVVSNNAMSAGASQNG

T3: GFP-9S library array, motif 4 ND N98S;D124T (synthetic construct, N98S;D124T)
T3 chain: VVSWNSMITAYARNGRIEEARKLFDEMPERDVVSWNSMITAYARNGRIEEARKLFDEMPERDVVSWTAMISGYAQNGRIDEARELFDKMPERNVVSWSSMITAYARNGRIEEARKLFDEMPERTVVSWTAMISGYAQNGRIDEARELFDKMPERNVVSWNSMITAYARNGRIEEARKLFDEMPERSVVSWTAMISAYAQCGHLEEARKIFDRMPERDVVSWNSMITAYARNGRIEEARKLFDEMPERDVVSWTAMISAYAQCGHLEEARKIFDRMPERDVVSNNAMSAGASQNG

T4: GFP-9S library array, motif 4 ND N98C;D124W (synthetic construct, N98C;D124W)
T4 chain: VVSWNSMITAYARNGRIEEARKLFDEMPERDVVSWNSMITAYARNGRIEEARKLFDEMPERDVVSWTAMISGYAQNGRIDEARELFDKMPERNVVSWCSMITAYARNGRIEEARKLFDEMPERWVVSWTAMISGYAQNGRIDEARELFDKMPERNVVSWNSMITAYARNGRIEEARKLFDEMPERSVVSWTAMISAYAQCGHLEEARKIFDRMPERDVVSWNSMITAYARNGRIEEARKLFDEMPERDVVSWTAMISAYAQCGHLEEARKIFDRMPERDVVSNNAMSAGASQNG

T5: GFP-9S library array, motif 4 ND N98K;D124S (synthetic construct, N98K;D124S)
T5 chain: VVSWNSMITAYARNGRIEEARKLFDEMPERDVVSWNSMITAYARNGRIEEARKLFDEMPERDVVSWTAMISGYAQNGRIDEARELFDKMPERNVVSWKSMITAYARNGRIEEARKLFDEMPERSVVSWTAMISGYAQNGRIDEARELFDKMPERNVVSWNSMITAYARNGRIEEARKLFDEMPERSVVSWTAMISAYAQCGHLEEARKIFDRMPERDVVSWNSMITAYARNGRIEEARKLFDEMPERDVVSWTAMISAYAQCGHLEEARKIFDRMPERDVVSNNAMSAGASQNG


Legend:
Assay in all cases: high-throughput RNA pulldown from lysate on Ni-NTA beads; HRP: 50 mM Tris pH 8, 150 mM NaCl, 1 mM beta-mercaptoethanol, 50 ug/ml BSA, 3 ug/ml yeast RNA, 0.5% heparin; ITC and FP: Tris pH 8, 200 mM KCl, 5% glycerol; MST: 50 mM Tris pH 8, 200 mM NaCl, 1 mM DTT, BSA, heparin, 0.05% Tween 20
Conditions in all cases: tags: N-terminal His-eGFP
[1] = molecular target: T1, GFP-9S library array, motif 4 ND …
[2] = molecular target: T2, GFP-9S library array, motif 4 ND …
[3] = molecular target: T3, GFP-9S library array, motif 4 ND …
[4] = molecular target: T4, GFP-9S library array, motif 4 ND …
[5] = molecular target: T5, GFP-9S library array, motif 4 ND …

Binder	Kd ([1]; label: 5' IRDye 800CW) [nM]	Kd ([2]; label: 5' IRDye 800CW) [nM]	Kd ([3]; label: 5' IRDye 800CW) [nM]	Kd ([4]; label: 5' IRDye 800CW) [nM]	Kd ([5]; label: 5' IRDye 800CW) [nM]	Kd ([1]; label: 5' Cy5) [nM]	Kd ([2]; label: 5' Cy5) [nM]	Kd ([3]; label: 5' Cy5) [nM]	Kd ([4]; label: 5' Cy5) [nM]	Kd ([5]; label: 5' Cy5) [nM]
AUUAAACGUGA (ssRNA) [IR-rpoA-A]	311	211	72.3	171	120	–	–	–	–	–
AUUAUACGUGA (ssRNA) [IR-rpoA-U]	182	212	108	234	40.8	–	–	–	–	–
AUUAGACGUGA (ssRNA) [Cy5-rpoA-G]	–	–	–	–	–	120	83.6	291	84.9	89.3
AUUACACGUGA (ssRNA) [Cy5-rpoA]	–	–	–	–	–	123	76.8	187	86.1	67.8
